Biological target: Transferrin receptor 1 (TfR, CD71) (Homo sapiens) (UniProt P02786)
Experiment: flow cytometry cell binding
Details: 5 mM Mg2+, PBS, 4.5 g/L glucose, 5 mM MgCl2, 1 mg/mL BSA, 0.1 mg/mL herring sperm DNA, 30 min on ice (4 C), intact cells
[1] = HCT-8T cells (cell line inferred)

Chain of UniProt P02786 (P02786 whole entry): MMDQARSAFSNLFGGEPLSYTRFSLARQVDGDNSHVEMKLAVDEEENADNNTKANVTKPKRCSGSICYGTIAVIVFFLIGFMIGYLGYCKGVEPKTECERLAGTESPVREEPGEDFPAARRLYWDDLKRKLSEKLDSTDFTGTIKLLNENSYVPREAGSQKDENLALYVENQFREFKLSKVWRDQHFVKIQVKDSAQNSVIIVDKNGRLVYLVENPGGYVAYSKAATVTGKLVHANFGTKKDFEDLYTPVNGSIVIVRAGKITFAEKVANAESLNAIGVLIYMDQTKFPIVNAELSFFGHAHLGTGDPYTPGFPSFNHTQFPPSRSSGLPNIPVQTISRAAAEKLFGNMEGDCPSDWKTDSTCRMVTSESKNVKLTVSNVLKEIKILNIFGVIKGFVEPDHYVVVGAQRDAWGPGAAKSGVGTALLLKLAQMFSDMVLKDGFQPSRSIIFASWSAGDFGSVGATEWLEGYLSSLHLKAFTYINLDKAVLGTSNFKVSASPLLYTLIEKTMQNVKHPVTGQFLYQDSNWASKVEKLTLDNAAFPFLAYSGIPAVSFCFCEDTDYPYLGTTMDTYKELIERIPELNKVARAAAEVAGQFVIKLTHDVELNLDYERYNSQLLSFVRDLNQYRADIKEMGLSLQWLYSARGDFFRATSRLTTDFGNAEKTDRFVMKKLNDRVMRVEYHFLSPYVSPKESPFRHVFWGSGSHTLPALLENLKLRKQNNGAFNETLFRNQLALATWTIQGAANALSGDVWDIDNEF

AAGGAGCAGCGTGGAGGATAGGGATTCTGTTGGTCGGCTGGTTGGTATCCTTAGGGTGTGTCGTCGTGGT [HG1]
Kd [1]: 6.48 nM

GGATAGGGATTCTGTTGGTCGGCTGGTTGGTATCC [HG1-9]
Kd [1]: 5.4 nM | Kd (HeLa cells): 19.8 nM | Kd (Jurkat cells): 11 nM
